Laboratory results taken from patent US20200277374A1 (Alector, published 2020).

B1: anti-Siglec-7 antibody 4D7 (antibody, V domains shown)
VH: QVQLQQSGAELVKPGASVKLSCKTSGYTFTNYWINWVKQRPGQGLEWIGNIYSGSSRTNYNEKFKSKATLTVDTSSSTAYMQLSSLTSDDSAVYYCAREGLRAMDYWGQGTSVTVSS
VL: NZMTQFQKFMSTSVGDRVSLTCKASQKVGTNVAGFQQKPGHSPKAGIYSASTRHRGVQDRFTARGLGSDFILPITTZQLEDLAEYZCHQGNSVQYTFGGGTKLEIK
notes: Variable domains assembled from FR and CDR entries
B2: anti-Siglec-7 antibody 7E11 (antibody, V domains shown)
VH: QVQLKQSGPVLVAPSQSLSITCTVSGFSLSNYGVHWVRQFPGKGLEWLGVIWAGGITNYNSVLMSRLSISKDNSKSQVFLKMNSLQTDDTAMYYCAKQGGTSFSYWGQGTLVTVSA
VL: DIQMTQSPASQSASLGESVTITCLASQTIGTWLAWYQQKPGKSPQLLIYAATSLADGVPSRFSGSGSGTKFSFKISSLQAEDFVSYYCQQLYSTPYTFGGGTKLEIK
notes: as for B1
B3: anti-Siglec-7 antibody 1A12 (antibody, V domains shown)
VH: QVQLQQSGSELRSPGSSVKLSCKDFDSEVFPITYMNWVRQKPGHGFEWIGDILPSIGRTMYGEKFEDKATLDADTVSNTAYLELNSLTSEDSAIYYCARSEGYLLAYWGQGTLVTVSA
VL: DVZMTQTPLSLPVSLGDQASISCRSSQSLVHSTGNTYLHWYLQKPGQSPKLLIYKVSNRFSGVPDRFSGSGAGTDFTLKISRVEAEDLGVYFCSQNTHVPYTFGGGTKLEIK
notes: also called 1Al2

How the values were obtained:
[1] = biological target: human Siglec-7 expressed on human cells (primary monocytes, dendritic cells, macrophages, NK cells, microglia, U937 cells, human cells of humanized mice) (human) (UniProt Q9Y286); experiment: FACS, human primary macrophages; isotype control (background)
[2] = biological target: human Siglec-7 expressed on human cells (primary monocytes, dendritic cells, macrophages, NK cells, microglia, U937 cells, human cells of humanized mice) (human) (UniProt Q9Y286); experiment: cell-based or functional assay
[3] = biological target: human Siglec-7 expressed on human cells (primary monocytes, dendritic cells, macrophages, NK cells, microglia, U937 cells, human cells of humanized mice) (human) (UniProt Q9Y286); experiment: FACS, human primary monocytes; isotype control (background)
[4] = biological target: human Siglec-7 expressed on human cells (primary monocytes, dendritic cells, macrophages, NK cells, microglia, U937 cells, human cells of humanized mice) (human) (UniProt Q9Y286); experiment: FACS, human primary dendritic cells; isotype control (background)
[5] = biological target: T1, Histidine-tagged human Siglec-7 (NovoProtein) (human, UniProt Q9Y286 19-357, limits assumed); experiment: SPR (BiaCore T200, 25 C), antibody captured on anti-mouse IgG, Siglec-7-His 100 nM, single-concentration kinetics
T1 construct: Bought protein; also called purified Siglec-7-his tagged protein; not shown: histidine tag
Description: SPR data was collected at a rate of 10 Hz at 25′ C on a BiaCore T200 instrument. Data analysis was performed using BiaCore T200 Evaluation Software, version 2.0. HBS-EP+ (100 mM HEPES, 1.5 M NaCl, 30 mM EDTA, 0.5% v/v Surfactant P20, pH 7.4) was used as running buffer and for preparing reagents.
Mouse-derived antibodies (25 nM) against Siglec-7 were captured (60 s contact time, 30 μL/min flow rate, 0 s stabilization time) on a CM5 sensor chip (GE Healthcare) immobilized with anti-mouse IgG. Histidine-tagged human Siglec-7 (NovoProtein) was then flowed over the captured anti-Siglec-7 surface (120 s contact time, 30 μL/min flow rate, 300 s dissociation time). Concentration of antigen ranged from 5 nM to 100 nM, depending on information obtained from an initial screen. Duplicate single-concentration trials were performed and bracketed by a blank (0 nM antigen) sample. The chip surface was regenerated in between cycles using 10 mM glycine-HCl, pH1.7 (60 s contact time, 30 μL/min flow rate, 60 s stabilization time). The resulting SPR signal was obtained as the difference in response from measurements performed on a blank flow cell.
Affinity constants (KD) were calculated from the ratio kd/kₐ. For one antibody (clone 1E8), we validated the single-concentration analysis with a multiple-concentration approach (five concentrations of antigen used, plus one blank).

[6] = biological target: T2, human Siglec-7 expressed on human cells (primary monocytes, dendritic cells, macrophages, NK cells, … (human, UniProt Q9Y286 19-467)); experiment: FACS, human primary macrophages, 10 ug/ml mAb
T2 construct: Endogenous receptor on cells; also called Siglec-7 receptor
Description: (§1) Initial characterization of Siglec-7 antibodies involved determining their ability to bind Siglec-7 expressed on human primary monocytes, human primary macrophages, human primary dendritic cells, human primary neutrophils, and human primary natural killer (NK) cells. Cells were harvested, plated at 10⁶/ml in a 96 well plate, and incubated in 100 ul PBS containing 2% FBS, 2 mM EDTA and 10 μg/ml Mab and Fc blocking reagent for 1 hour in ice. Cells were washed twice and incubated in 100 ul PBS containing 2% FBS, 2 mM EDTA and 5 ug/ml PE-conjugated secondary antibody for 30 minutes on ice. Cells were washed twice in cold PBS and analyze by flow cytometry on a BD FACS Canto. Data analysis and calculation of MFI values was performed with FlowJo (TreeStar) software version 10.0.7.
(§2) Percent positive binding and mean fluorescent intensity (MFI) values for cell types bound by Siglec-7 antibodies are listed in Table 4A. Binding is compared to an isotype control. The antibodies bind to human primary monocytes, human primary dendritic cells, and human primary macrophages. In Table 4A, “Buffer” refers to cells that were treated only with the PBS buffer described supra; “Secondary Ab” refers to cells that were treated only with the PE-conjugated secondary antibody; “mIgG1,” “mIgG2a,” and “mIgG2b” refer to isotype control antibodies; and “RDS7” refers to commerically available anti-Siglec-7 antibody Mab1138 (R&D Systems; Cat. No. MAB 1138).

[7] = biological target: T2, human Siglec-7 expressed on human cells …; experiment: FACS, human primary dendritic cells, 10 ug/ml mAb
Description: as §1, §2

[8] = biological target: T3, Siglec-7-Fc (plate immobilized) (human, UniProt Q9Y286 19-357, limits assumed); experiment: RBC solid adhesion assay, plate-coated Siglec-7-Fc, antibody 0.5 or 1.0 ug/ml; % of RBC binding without antibody
T3 construct: also called Siglec-7-Fc protein; immobilized Siglec-7; not shown: Fc part
Description: To determine which antibodies compete with ligand binding to Siglec-7, a red blood cell (RBC) solid adhesion assay was carried out in accordance with standard protocols (Kelm et al., Current Biology, 1994). Red blood cells are highly decorated with glycoproteins containing sialic acids: therefore, the ability of an antibody to block RBC binding to immobilized Siglec-7 can be used to determine ligand interference. Briefly, 5 μg/ml Siglec-7-Fc was coated overnight at RT in 96 well Immunolon plates, then washed with PBS, blocked for one hour with binding buffer (PBS containing %0.25 BSA 1 mM CaCl₂), Siglec-7 antibodies (0.5 μg/ml or 1.0 μg/ml) were bound for one hour at RT with gentle rocking. After removal of unbound antibody, red blood cells were added to each well at a concentration of 3.0×10⁶ cells per ml and incubated at RT for one hour. Unbound RBCs were then carefully washed off 3× with PBS, and water was added to each well for hypotonic lysis of bound RBCs. The plate was transferred to −80° C. for 10 minutes, followed by 37° C. for 15 minutes. Bound RBCs were detected by peroxidase activity, followed by 2N sulfuric acid to stop the reaction. Signal was detected at […]. Data was calculated as a percent of RBC binding to plate bound Siglec-7-Fc in the absence of antibody.

[9] = biological target: T2, human Siglec-7 expressed on human cells …; experiment: cell-based or functional assay
[10] = biological target: T2, human Siglec-7 expressed on human cells …; experiment: FACS, human primary monocytes, 10 ug/ml mAb
Description: as §1, §2

[11] = biological target: T2, human Siglec-7 expressed on human cells …; experiment: cell-based or functional assay; remark: listed apart in the source

T3 sequence (Q9Y286 19-357 limits assumed): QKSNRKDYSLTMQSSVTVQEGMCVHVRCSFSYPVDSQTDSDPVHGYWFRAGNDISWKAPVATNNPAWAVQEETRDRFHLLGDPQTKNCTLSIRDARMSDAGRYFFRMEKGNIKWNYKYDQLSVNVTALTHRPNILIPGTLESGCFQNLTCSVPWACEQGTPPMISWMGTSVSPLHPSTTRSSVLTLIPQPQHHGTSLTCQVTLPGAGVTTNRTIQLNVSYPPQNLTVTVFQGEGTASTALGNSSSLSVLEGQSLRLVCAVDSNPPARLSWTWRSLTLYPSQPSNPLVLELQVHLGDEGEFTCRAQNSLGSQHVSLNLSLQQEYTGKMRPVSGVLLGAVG
T1 sequence (Q9Y286 19-357 limits assumed): as above
T2 sequence (Q9Y286 19-467): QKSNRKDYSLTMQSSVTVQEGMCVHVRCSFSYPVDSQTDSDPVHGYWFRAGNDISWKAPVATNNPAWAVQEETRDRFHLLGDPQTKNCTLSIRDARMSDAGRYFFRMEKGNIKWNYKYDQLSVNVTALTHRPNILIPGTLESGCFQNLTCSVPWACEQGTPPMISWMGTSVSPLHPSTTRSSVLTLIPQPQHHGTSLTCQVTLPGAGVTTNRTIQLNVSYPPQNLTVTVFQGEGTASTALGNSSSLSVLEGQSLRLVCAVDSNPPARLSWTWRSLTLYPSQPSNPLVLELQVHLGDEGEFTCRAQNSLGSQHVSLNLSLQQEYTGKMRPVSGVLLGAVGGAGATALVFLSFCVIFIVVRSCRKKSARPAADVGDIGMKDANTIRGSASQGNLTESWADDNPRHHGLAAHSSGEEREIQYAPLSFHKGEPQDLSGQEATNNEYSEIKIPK
human Siglec-7 expressed on human cells (primary monocytes, dendritic cells, macrophages, NK cells, microglia, U937 cells, human cells of humanized mice) (human), sequence (Q9Y286 19-467): as above

Molecule	Kd [5] [nM]	% Positive [6] [%]	MFI [6]	% Positive [7] [%]	MFI [7]	Percent RBC Binding to Siglec-7 [8] [%]	Percent Siglec-7 Surface Expression, Macrophages [9] [%]	Percent Siglec-7 Surface Expression, Microglia [9] [%]	Percent Siglec-7 Surface Expression, NK cells [9] [%]	% Positive [10] [%]	MFI [10]	Percent Siglec-7 Surface Expression, DCs [11] [%]	Percent Siglec-7 Surface Expression, Monocytes [11] [%]	Percent Siglec-7 Surface Expression, U937 cells [11] [%]	other results
mIgG2a isotype control antibody	–	–	–	–	–	–	–	–	–	–	–	–	–	–	% Positive [1]: 35.8%; MFI [1]: 648; Percent Siglec-7 Surface Expression, DCs [2]: 100%; Percent Siglec-7 Surface Expression, Macrophages [2]: 100%; Percent Siglec-7 Surface Expression, Microglia [2]: 84.2%; Percent Siglec-7 Surface Expression, Monocytes [2]: 99.4%; Percent Siglec-7 Surface Expression, NK cells [2]: 101%; Percent Siglec-7 Surface Expression, U937 cells [2]: 99.8%; % Positive [3]: 14%; MFI [3]: 141; % Positive [4]: 4.5%; MFI [4]: 134
B1	2.9	99.4	4260	26.1	250	96.5	24.1	44.3	87.6	90.5	262	73.3	33.9	84.7	–
B2	9.5	99.8	2380	98.4	845	89.3	5.7	11.5	50.7	93.3	278	19.3	8.1	75.2	–
B3	0.6	99.4	15800	99.7	6090	16.5	13.4	28.6	136	99.3	505	100	39.9	87.3	–
